Reference: patent publication JP2023092810A (dated 2023)

B1: OKT3 scFv (scFv, V domains shown)
VH: QVQLVQSGGGVVQPGRSLRLSCKASGYTFTRYTMHWVRQAPGKGLEWIGYINPSRGYTNYNQKVKDRFTISRDNSKNTAFLQMDSLRPEDTGVYFCARYYDDHYSLDYWGQGTPVTVSS
notes: Made in E. coli; also called OKT3 scFv(コントロール); 変異導入前のOKT3 scFv; not shown: linker, VL of OKT3 (OL) and any tag
B2: OKT3 scFv-D65N/D82aN (scFv, name in Kabat numbering, V domains shown)
VH: QVQLVQSGGGVVQPGRSLRLSCKASGYTFTRYTMHWVRQAPGKGLEWIGYINPSRGYTNYNQKVKNRFTISRDNSKNTAFLQMNSLRPEDTGVYFCARYYDDHYSLDYWGQGTPVTVSS
notes: not shown: linker, VL of OKT3 (OL) and any tag
B3: OKT3 scFv-D65A/D82aN (scFv, name in Kabat numbering, V domains shown)
VH: QVQLVQSGGGVVQPGRSLRLSCKASGYTFTRYTMHWVRQAPGKGLEWIGYINPSRGYTNYNQKVKARFTISRDNSKNTAFLQMNSLRPEDTGVYFCARYYDDHYSLDYWGQGTPVTVSS
notes: as for B2

Molecular target: プロテインA (rProtein A Sepharose Fast Flow) (UniProt P38507 37-327)
Experiment: rProtein A Sepharose Fast Flow column, fractions on SDS-PAGE

Q: Does B1 bind?
A: no binding

Q: Does B2 bind?
A: no binding

Q: Does B3 bind?
A: no binding
